Measurements as given in the DeepSol protein solubility set.

Test: soluble on expression in E. coli; label from the status in PepcDB or PDB records

Row | Sequence | soluble on expression in E. coli
1 | FEPMMQRDKIMQNLSYISDVNVLPDWMTVSQLLSYTEGVHPGFNRSKADALLRQTDIKPRAKIRALSKGMKVQLHLAIVIATNTQILILDEPTLGLDLVYRDTFYRHLLEWFHDGERVLIITSHEVSEIEHLLTDVLILKHGRPVLQTSMESISEDYFILDANDEHRAQIEAMHPLSSQKGLGTTKWLLSSQYADQAAGLGDVHGVKLADLFLALQKEAA | not soluble
2 | MDKELNPSIGDYTGRTVDTLQNAVYIRLMTPLGSWWADKTLGSLLHLLQREKDLQRVSLLAEQYADEALQPIVKSGRADKITVRAEQPHDGRLILHIRMDTAAGGFDYRHEVPVI | not soluble
3 | HSDPARRGQLSVCDSISEWVTAADKKTAVDMSGGTVTVLEKVPVSKGQLKQYFYETKCNPMGYTKEGCRGIDKRHWNSQCRTTQSYVRALTMDSKKRIGWRFIRIDTSCVCTLTIKRGR | soluble
4 | MGHHHHHHSHMDRWSAGTLENSILNAYLHTIRGSQHFLYIENQFFISCSDGRTVLNKVGDEIVDRILKAHKQGWCYRVYVLLPLLPGFEGDISTGGGNSIQAILHFTYRTLCRGEYSILHRLKAAMGTAWRDYISICGLRTHGE | soluble
5 | MTTNIAANSGGIVFHFLGTGGAQQVPAFGCECEVCQQAQRNESKRRRACCAAITTKDRIILIDAGLPELSPYLLPYPQRHILLTHYHMDHVQGLFPLRWGYGEPIPVFGPPDEAGCDDLFKHPGILHFQKPLMAFQPFELDGIRITPVPLIHSKLTYGYLIQTPTHTLAYLTDTIGLPPETTQFLASHTLDYAIVDCSHPPQTMLPRNHNDITRALEIFTQLNPKQLYLTHISHELDRWLQTQTLLPENVHAAYDGLVLGLLEHHHHHH | not soluble
6 | MSLDLREYSTDHQKIKRIEFNCKSKNNTLDGLLTPEEIVAEAKRQGHSAVGISDYNSIFSFPEFYYAAKANNIKPIYGAGFAMLEDTNGAFLTEFQNQDLITGRYVVFDIETTSLSAYHGEIIEFAATIIENKAVVDKVDIFIKSKEKLSHFTTRLTSITNEMLDQKGIELKEALQKIYDVMNNNVAVAHNANFDYNFLIEKFDQNNMQAPKCTFIDSLVVSRILFEHRDKHNLNEFCRNMSVNYDTEKAHRALYDTEVLADAWIEATLKMKDIKQISNFQELSEYKSDALFSKYFSLYINTVVKNQAGLKELFQLVSIANTKTFYGAPKIFWSTLKSFKNILVGSNGVQGELFDIMMLSSRQRVEKYIQKLDYIEIPHPDLFDSYLDRNQLTKDQLLESLQILISLAKKHNKLIISTAEPRYRHKGDREIFKVLTSFPIRDKRHFLWNYKAVKAGNYSVPNFYFLTTDEMLDAFSFLKDKSLIEDIVVNNAHKLNNLIDENIEVIKTDLYPPSIKNSSELLKDLVYKNAKKKYGEVLPKLVQDRIDKELIPIINYKFDVVYWISHILVKKANDDGYVVGSRGSVGSSLIANLINITEVNPLEPHYICDNCKHFEVVNNDKITSGYDLDDKNCPNCDSIMDKDGHSIPFETFLGFKADKVPDIDLNFSGEYQIAIHNYTRELFGEDKTFRAGTVSSIQYRKAFGFIKKYIEDTNTFYSNGFIDYLAEKCIDVKVTTGKHAGGIVVLPENLDIEEFTPVNYASDGLEDKEWKTTHFKYDFLKENLLKLDLLGHSDPTQIRFLEQATGLLSKNIPKKDKNLLKLFSSTEPMEIDPNDINGETTGAIALPEFGTKFTREIIKTSKPHLFADLISISGLSHGQNVWKNNAEDLILNENKTLNEIVCCRDDIMNYLIKKGVDASLSFKVTESVRKGKGVDSEDIKILSTYNIPDWFFDSMQKIKYMFPRAHAVAYVIMAWRMGYYKLYYPLEFYASFFSVKCSKFDLSAMIDFSKDGYWKIKNKIEEIEKLIRTNNKKDNKKEEDILESLNVALEMYSRGFTIQNIDIEKSDAYNWIIDKDSKSLIPPFSALDGIEAGAIKIINARKERPFKTVLDFAKRSGVSSTIVEKLKELNVFKDLPESEQLSLFGEGHHHHHH | soluble
7 | MAMTKNTRFSPEVRQRAVRMVLESQGEYDSQWATICSIAPKIGCTPETLRVWGLRQHERDTGGGDGGLTTAERQRLKEPERENRELRRSNDILRQASAYFAKAEFDRLWKKLEHHHHHH | soluble
8 | TQQPQQDEMPSPTFLTQVKESLSSYWESAKTAAQNLYEKTYLPAVDEKLRDLYSKSTAAMSTYTGIFTDQVLSVLKGEE | soluble
9 | MNQSDVLSNSMKQATINNEAHVIIDDIDTAHKELDILQQEVDKVIFGQNHVIEYALTSILAGGHALLVGVPGLAKTRLVETLGIVLGLDEKRIQFTPDLMPSDIIGSEIMDSDKSGKRSFRYLQGPIFTQLLMADEINRASPRTQSALLQAMQEYHVTVAGTRYDLPQPFHVLATQNPLEQEGTYPLPEAQLDRFLMQIDIDYPDLTTERRIILDTTGGKNQNAKPVLSAKTLQKIQKIVRKMPISENVVEAILKLVRSARPHKENSLANTYVAWGPGPRASQALSLCARARALYHGRLSPSLDDIATLACPVLQHRMALNFSARAENITIKDIIDNLVKDAL | not soluble
10 | MGSDKIHHHHHHMGIENMKICIVSFTKKGYELSCDIAYKLEKSAYEVEVFTKCSRLSDENIKNSTDENYRNTGYISQNISDWTAAQMSEKKALIFIGACGIAVRAIASSVNNKLKDSPVIVIDELGKFVIPILSGHVGGANEFAVLLAALMNATPVITTATDINNKFAVDVFAKKCRLAIVNKDGIARVSSKVLAGEVVTMSVDWEHIPAKHRSLIKAFLDKADMSADAIKTVDFPPAYGADIVVSCEKEKDTKNGSIYLKPTQFVLGIGCRRDTAFENIDRAIRQSLLKLQIDISDIDMIASIDVKKDEPGIKEFCERNRIEFVTYTADELMAVQGEFSASQFVREHVGVDNVCERAAVLACSRECDKAGELIYKKHKYDRVTVAAARYPD | not soluble
11 | MSLRFIDKLYQANLGKLTAGISPAALGTAYYSWFAQLLQSPGSMLRLAYYPLLHANDYLSNLFKYDKPRDGKDVRFHTENWSYYPWRLWAEQFLQFEDWCLQASSKVPGIPLHVKRTVTFSTRQILDALSPSNFVLTNPDLLQETIRSNGQNLIRGTELAFQDFVEKITGSPPAGVENFIPGKQVAVTEGKVVYSNHLIELIQYTPQTEKVYKEGHHHHHH | soluble
12 | SSAAQPGVAFSVDNTIKRPNPAPGTRKKSSNAEVIKELNKCREENSMRLDLSKRSIHILPSSIKELTQLTELYLYSNKLQSLPAEVGCLVNLMTLALSENSLTSLPDSLDNLKKLRMLDLRHNKLREIPSVVYRLDSLTTLYLRFNRITTVEKDIKNLSKLSMLSIRENKIKQLPAEIGELCNLITLDVAHNQLEHLPKEIGNCTQITNLDLQHNELLDLPDTIGN | soluble
13 | MSLNSMKDAFNREIDYVRLSLTDRCDLRCTYCMPATGLCFLKKEQLLTDDEIIFLLRILAKEDIKKVKLTGGEPLVRPNLLSLIKRIKQISGIEKVTLTTNGMKLAREAQGLKEAGLDGINISLDTLDPEEFREITRVGQLRNVLAGLEQAIDVGLPNIKINTVARKELSEATIVELAEIAKKETVHLRFIEMMPIGLGKEHPGKQQEEVEAILTKYYGTLQPYQKPLGNGPASYYALKDFKGKIGFISALGHCFCETCNRIRITADGHLKTCLHSADGYSLKEALAMEQTAELLGIIKSGIACKPEKHLFLEQQGEQRFMSQIGGEGHHHHHH | not soluble
14 | GPGSMLRSLFGRPSLAVLNNYGHMARPASPLLCSQRGVFADRVRAGMILKVDKRYYRVLANTRSQKGQNAASFNIKLTEVGTGRKKEVTAGHGHDFAEARAERVRLLFSGFDDDDMACFVYPEHSSDAGKEVNIPGDSLPELQQKFLCCGMPVDVLHIMPDDDESPNEKDIWSEVVMPSNYTYTVEKLTLKGMYKMAAFVECDGIIGVNDSVQVNDKVKVVIKPDGTAAFGGRAT | not soluble
15 | EEQPRLFELLGQPGYKATWHAMFKGESDVPKWVSDASGPSSPSTSLSLEGQPYVLANSCKPHDCGNNRLLVAFRGDKSAAYGLQVSLPDEPAEVMQTPSKYATYRWYGEPSRQVRELLMKQLESDPNWKLEHHHHHH | soluble
16 | MGSDKIHHHHHHMKLLDHKLSLLEITDEEKSDEIILNLSRNVKKDLEDIVVANVSMENVLVMNIKVPPTLNKQNAVEYATMEISRNLGILPEQLVVAPLDIRGGEGLFFVSKVDQVKSFVTDLMKKEFPETDVVIPDIVKYLEVFEFYFGKRLKGTSVLTVISFLSDYYSIVVLENNHYRSLRLLFSMFWDYMDIVVENTGIQPKELIEGTVNVDLSFLQPYFGDFLIELDREVKVSLDEVNLSRVNQFFYIVDPPIFSPVLSQSLEKFEGVALKQGIVPSFKPGISLGTLGLMIRGGREIGKVKHLSV | not soluble
17 | MPPKVTSELLRQLRQAMRNSEYVTEPIQAYIIPSGDAHQSEYIAPCDCRRAFVSGFDGSAGTAIITEEHAAMWTDGRYFLQAAKQMDSNWTLMKMGLKDTPTQEDWLVSVLPEGSRVGVDPLIIPTDYWKKMAKVLRSAGHHLIPVKENLVDKIWTDRPERPCKPLLTLGLDYTGISWKDKVADLRLKMAERNVMWFVVTALDEIAWLFNLRGSDVEHNPVFFSYAIIGLETIMLFIDGDRIDAPSVKEHLLLDLGLEAEYRIQVHPYKSILSELKALCADLSPREKVWVSDKASYAVSETIPKDHRCCMPYTPICIAKAVKNSAESEGMRRAHIKDAVALCELFNWLEKEVPKGGVTEISAADKAEEFRRQQADFVDLSFPTISSTGPTGAIIHYAPVPETNRTLSLDEVYLIDSGAQYKDGTTDVTRTMHFETPTAYEKECFTYVLKGHIAVSAAVFPTGTKGHLLDSFARSALWDSGLDYLHGTGHGVGSFLNVHEGPCGISYKTFSDEPLEAGMIVTDEPGYYEDGAFGIRIENVVLVVPVKTKYNFNNRGSLTLEPLTLVPIQTKMIDVDSLTDKECDWLNNYHLTCRDVIGKELQKQGRQEALEWLIRETQPISKQH | soluble
18 | MSHPSHVRALCASLCLGAGLPVHAGHVHAGQGFLEDAKASLTARNFHLHRNFVGDASQGKAEEWTQSFILDARSGFTQGSVGFGLDVLGLYSLKLDGGKGTAGTQLLPIHDDGRPADDFGRLAVAGKLRVSNSELKIGEWMPVLPILRSDDGRSLPQTFRGGQLSANEIAGLTLYAGQFRGNSPRNDASMQDMSLFGRPAATSDRFDFAGGEYRFNGERSLLGLWNAELKDIYRQQYLQLQHSQPLGDWLLGANLGGFRGRDAGSARAGKLDNRTVSALFSARYGLHTLYLGLQKVSGDDGWMRVNGTSGGTLANDSYNASYDNPGERSWQLRYDFDFVGLGLPGLTFMTRYLHGDHVRLAGVTDDGSEWGRESELGYTLQSGAFKRLNVRWRNSSQRRDWGSNTRFDENRLIVSYPLSLL | not soluble
19 | MGSDKIHHHHHHMDHAIYTAMGGASQSLEKQAITANNLANASTPGFRAQLSALRAVPVNGLTLPTRTLVVASTPGADMTEGVMNYTGRAMDVALPKESWLAVQTANGGEAYTRNGNMEINADGQLTIQGRVVMGDGGPIDIPPQAQISISADGTISALNAGDPPNTIAQLGRLKLVKATGQEVERSDDGLFRLTQQAQQQRGNVLQNDPTVRIMPGVIEGSNVNTVDTMVDMIANARRFEMQMKVISSVDDNAQRANQILAMG | not soluble
20 | MTAFAAASPRAAVRTGFDGLAISVATRAMMKNLDQNFDAILITGPTASGKSALALRLARERNGVVINADSMQVYDTLRVLTARPSDHEMEGVPHRLYGHVPAGSAYSTGEWLRDISGLLSDLRGEGRFPVIVGGTGLYFKALTGGLSDMPAIPDDLREGLRARLIEEGAAKLHAELVSRDPSMAQMLQPGDGQRIVRALEVLEATGKSIRDFQRASGPMIIDPERAQKFIVLPERPVLHDRINRRFEAMMDSGAVEEVQALLALNLAPDATAMKAIGVAQIADMLTGRMGAAEVIEKSAAATRQYAKRQMTWFRNQMGDDWTRIQPAAALEHHHHHH | not soluble
